The source of these data is PMC6389388 (Journal of molecular biology, 2019).

B1: His-tagged hRpn10^196–306 (domain or fragment, human, UniProt P55036 196-306, looked up)
chain: MLGLGASDFEFGVDPSADPELALALRVSMEEQRQRQEEEARRAAAASAAEAGIATTGTEDSDDALLKMTISQQEFGRTGLPDLSSMTEEEQIAYAMQMSLQGAEFGQAESA
B2: UBQLN2 UBL domain (domain or fragment, human)
chain: APAEPKIIKVTVKTPKEKEEFAVPENSSVQQFKEAISKRFKSQTDQLVLIFAGKILKDQDTLIQHGIHDGLTVHLVIK

One assay deals with M1 diubiquitin (UniProt P0CG48 1-76; P0CG48 1-76, M1 linkage between the two ubiquitins). Put plainly: pull-down.
Assay [1] concerns the target B1. In words: NMR structure.
Assay [2] deals with B1. Put plainly: NMR titration.

For the molecule B1, the binding result with M1 diubiquitin is recorded as “binds”.
Turning to B2, in assay [1], the “stoichiometry N” value was 2. Also, the “KD of the secondary binding site (UIM-2)” value in assay [2] turned out to be 24.8 ± 3.1 µM.

In general, stoichiometry N refers to a count of units in the complex or per binding partner.
